Key:
[1] = biological target: T1, cynomolgus IL-18Rα on CHO-K1 cells (cynomolgus, UniProt A0A2K5V3J9 19-540); test: cell ELISA on CHO-K1 cells expressing cynomolgus IL-18Rα
T1 construct: whole, on cells; also called CHO CyIL-18Rα
T1 sequence: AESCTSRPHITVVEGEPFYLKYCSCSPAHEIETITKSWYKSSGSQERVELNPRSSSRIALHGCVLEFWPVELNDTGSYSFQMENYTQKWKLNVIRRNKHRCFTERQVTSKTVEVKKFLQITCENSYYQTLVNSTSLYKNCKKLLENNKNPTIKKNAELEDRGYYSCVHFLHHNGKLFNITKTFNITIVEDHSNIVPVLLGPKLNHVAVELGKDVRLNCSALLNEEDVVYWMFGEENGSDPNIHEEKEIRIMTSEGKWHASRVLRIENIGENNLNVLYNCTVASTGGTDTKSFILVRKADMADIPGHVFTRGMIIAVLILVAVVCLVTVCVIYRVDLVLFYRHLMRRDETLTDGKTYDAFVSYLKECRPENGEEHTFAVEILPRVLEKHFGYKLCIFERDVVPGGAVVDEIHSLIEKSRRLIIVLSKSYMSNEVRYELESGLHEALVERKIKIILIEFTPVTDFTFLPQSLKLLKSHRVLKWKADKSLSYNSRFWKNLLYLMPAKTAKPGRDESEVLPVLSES
Method: (§1) The recombinant cell lines CHO-K1 expressing cynomolgus IL-18Rα or cynomolgus IL-18Rα+β were stained with the Mab_IL-18R antibodies in a cell ELISA. Controls are CHO-K1 untransfected cells. Cells were grown in F-12 medium (GIBCO) with Glutamax-1 (GIBCO Cat. No. 31331-028)+10% FCS (PAN Cat. No. 2802-P920707). For cultivation of the recominant cell lines 250 μg/ml G418 (Geneticin, GIBCO, Cat. No. 10131-019) was added. As control antibody anti hIL-18Ralpha Antibody Mab840 (Mouse monoclonal IgG1 from R&D Systems, Cat. MAB 840) and as detection antibody goat anti-mouse IgG (H+L)-HRP conjugate (BioRad) was added. For running the assay, on day 1 2×10⁴ CHO_CynoIL-18Rα, CHO_CynoIL-18Rα+β or untransfected CHO cells in 50 μl F-12/well were seeded in a 96-well plate and incubated overnight at 37° C. On day 2, 50 μl supernatant or (2×) purified antibody diluted in medium or 50 μl Hybridoma supernatant were added and incubated for 2 h at 4° C. Supernatant was aspirated and 100 μl/well Glutaraldehyde fixing solution (25% stock solution Grade EM; final concentration=0.05% in PBS) was added and incubated for 10 minutes at room temperature. For washing 2 times 200 μl PBS/well/wash was added and removed. 50 μl of ELISA detection-antibody diluted in ELISA blocking reagent (ELISA blocking stock reagent diluted 1:10 in PBS) was added. […] The plates were measured at 450 nm-620 nm using an ELISA reader (TECAN).

[2] = biological target: T2, cynomolgus IL-18Rα/IL-18Rβ on transfected cells (cynomolgus, UniProt A0A2K5V3J9 19-540; A0A7N9D6S0 20-598); test: cell ELISA on CHO-K1 cells expressing cynomolgus IL-18Rα+β
T2 construct: whole, on cells; also called CHO CyIL-18Rα + β
T2 sequence 1: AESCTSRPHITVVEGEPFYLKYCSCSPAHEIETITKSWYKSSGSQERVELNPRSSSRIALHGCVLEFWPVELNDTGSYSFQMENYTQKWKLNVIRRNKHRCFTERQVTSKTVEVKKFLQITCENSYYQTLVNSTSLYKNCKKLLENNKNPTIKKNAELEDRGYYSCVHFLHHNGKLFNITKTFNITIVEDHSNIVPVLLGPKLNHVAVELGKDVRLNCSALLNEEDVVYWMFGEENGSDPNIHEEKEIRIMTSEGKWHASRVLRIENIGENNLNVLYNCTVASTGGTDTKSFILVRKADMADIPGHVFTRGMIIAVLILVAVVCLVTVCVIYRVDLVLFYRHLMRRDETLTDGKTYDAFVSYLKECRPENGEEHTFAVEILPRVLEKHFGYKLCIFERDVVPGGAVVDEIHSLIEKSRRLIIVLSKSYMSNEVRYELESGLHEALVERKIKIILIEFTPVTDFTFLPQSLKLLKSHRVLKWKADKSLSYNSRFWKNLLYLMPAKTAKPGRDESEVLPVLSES
T2 sequence 2: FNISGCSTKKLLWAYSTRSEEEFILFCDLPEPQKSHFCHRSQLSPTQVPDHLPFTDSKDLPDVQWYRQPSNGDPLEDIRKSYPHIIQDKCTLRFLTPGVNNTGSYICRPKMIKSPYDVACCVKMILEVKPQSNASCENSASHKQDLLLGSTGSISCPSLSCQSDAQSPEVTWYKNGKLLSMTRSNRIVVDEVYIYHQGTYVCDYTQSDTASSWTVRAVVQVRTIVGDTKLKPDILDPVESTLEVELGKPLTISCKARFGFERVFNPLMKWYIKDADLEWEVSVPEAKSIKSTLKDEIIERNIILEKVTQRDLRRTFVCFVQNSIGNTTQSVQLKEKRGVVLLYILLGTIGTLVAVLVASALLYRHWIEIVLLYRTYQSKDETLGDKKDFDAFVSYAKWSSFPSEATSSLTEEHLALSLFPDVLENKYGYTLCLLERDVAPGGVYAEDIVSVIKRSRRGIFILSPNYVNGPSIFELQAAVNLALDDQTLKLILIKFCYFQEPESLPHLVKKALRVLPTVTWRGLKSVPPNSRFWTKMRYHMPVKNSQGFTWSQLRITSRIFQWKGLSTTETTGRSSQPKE
Method: as §1

EC50 [1]: 0.0186 µg/mL | EC50 [2]: 0.015 µg/mL
B1: Mab 1G12 (antibody, V domains shown)
VH: QVQLQQPGAELVKPGASVRMSCKTSDYTFTSNWMHWVKQRPGQGLEWIGTIDPSDSYTYYNQKFKGRATLTVDTSSSTAYMQLSSLTSEDSAVYYCTTSGDYDADRYFDVWGAGTTVTVSS
VL: DIVLTQSPASLGVSLGQRATISCRASKSVSTSGDSYMHWYQQKPGQSPKLLIYLASNLESGVPARFSGSGSGTDFTLNIHPVEEEDAATYYCQQSRELPLSFGAGTKLELK
notes: Monoclonal antibody from immunized NMRI mice; detected with anti-mouse IgG1-PE / anti-mouse IgG; also called F20.1G12; monoclonal antibody 1G12
